Test results as given in patent publication US20190046600.

Tests used:
[1] = biological target: T1, Ac-DEVD-CHO
T1 chain: DEVD

[2] = biological target: T2, HILR-030 (cyclo-[Pro-Arg-Gly-Pro-Arg-Pro-Val-Trp-Trp-Gpa-Gpa-Trp-Trp-Gpa-Gpa-Trp-Trp])
T2 chain: PRGPRPVWWXXWWXXWW

B1: recombinant human caspase 3 enzyme (protein)
chain: SGISLDNSYKMDYPEMGLCIIINNKNFHKSTGMTSRSGTDVDAANLRETFRNLKYEVRNKNDLTREEIVELMRDVSKEDHSKRSSFVCVLLSHGEEGIIFGTNGPVDLKKITNFFRGDRCRSLTGKPKLFIIQACRGTELDCGIETDSGVDDDMACHKIPVEADFLYAYSTAPGYYSWRNSKDGSWFIQSLCAMLKQYADKLEFMHILTRVNRKVATEFESFSFDATFHAKKQIPCIVSMLTKELYFYH
[1]
  caspase-3 activity (Apo-ONE Homogeneous Caspase-3/7 assay, 2 h co-incubation with substrate or enzyme): Both DEVD-CHO and HILR-030 inhibited the caspase-3 activity in a dose-dependent fashion
  caspase-3 activity (Apo-ONE Homogeneous Caspase-3/7 assay, cleavage of Z-DEVD-R110, recombinant enzyme): Ac-DEVD-CHO inhibited the activity of caspase-3 in a dose-dependent manner, giving rise to IC50s within the expected range according to the inhibitor specification sheet
[2]
  caspase-3 activity (Apo-ONE Homogeneous Caspase-3/7 assay, 2 h co-incubation with substrate or enzyme): Both DEVD-CHO and HILR-030 inhibited the caspase-3 activity in a dose-dependent fashion
